B1: ssRNA70 (ssRNA)
RNA: UUAGUUGUUCGUAGUGCUCGUCUGGCUCUGGAUUACCCGCUUAGUUGUUCGUAGUGCUCGUCUGGCUCUG
B2: ssDNA70 (dT70) (ssDNA)
DNA: TTTTTTTTTTTTTTTTTTTTTTTTTTTTTTTTTTTTTTTTTTTTTTTTTTTTTTTTTTTTTTTTTTTTTT

Assays:
MDCC-SSB [1] = target: T1, MDCC-SSB (UniProt P0AGE0 1-178, G27C); assay: MDCC fluorescence spectra; excess ssRNA70; 3 mM MgCl2; 50 mM Tris-HCl pH 7.5, 3 mM MgCl2, 100 mM (or 200 mM) NaCl; MDCC titrations 25 C; EMSA room temperature, 20 min; settings: protein: recombinant; tags: pET151 vector, His tag (HisTrap purified); MDCC label (at C26, implied); chain copies: 4; single strand
T1 sequence (P0AGE0 whole entry G27C): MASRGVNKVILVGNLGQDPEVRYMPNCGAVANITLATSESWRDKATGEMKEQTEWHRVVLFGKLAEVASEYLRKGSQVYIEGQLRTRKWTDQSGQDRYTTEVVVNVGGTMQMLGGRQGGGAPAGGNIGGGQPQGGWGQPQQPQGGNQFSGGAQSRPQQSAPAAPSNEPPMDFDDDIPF

MDCC-SSB [2] = target: T1, MDCC-SSB; assay: MDCC fluorescence spectra; excess ssDNA70; 3 mM MgCl2; 50 mM Tris-HCl pH 7.5, 3 mM MgCl2, 100 mM (or 200 mM) NaCl; MDCC titrations 25 C; EMSA room temperature, 20 min; settings: protein: recombinant; tags: pET151 vector, His tag (HisTrap purified); MDCC label (at C26, implied); chain copies: 4; single strand

Row | Binder | binding signal (MDCC-SSB [1]) | binding signal (MDCC-SSB [2])
1 | B1 | 2.1 fold fluorescence increase | –
2 | B2 | – | 1.9 fold fluorescence increase

Reference: PMC5811048, “Application of the SSB biosensor to study in vitro transcription”
